Experimental data published in article PMC3664939, “Structure of the Catalytic Region of DNA Ligase IV in Complex with an Artemis Fragment Sheds Light on Double-Strand Break Repair” (Structure(London, England:1993), 2013).

Target: T1, DNA ligase IV catalytic region (residues 1–609) (human, UniProt P49917 1-609)
T1 construct: Cloned in pOPINS; whether the His6-Sumo tag was removed is told only in the Supplemental Experimental Procedures; the derivative crystals carry nine mercury atoms from thiomersal; the methods point to the recombinant construct for the crystals; also called catalytic region of LigIV
T1 sequence (looked up): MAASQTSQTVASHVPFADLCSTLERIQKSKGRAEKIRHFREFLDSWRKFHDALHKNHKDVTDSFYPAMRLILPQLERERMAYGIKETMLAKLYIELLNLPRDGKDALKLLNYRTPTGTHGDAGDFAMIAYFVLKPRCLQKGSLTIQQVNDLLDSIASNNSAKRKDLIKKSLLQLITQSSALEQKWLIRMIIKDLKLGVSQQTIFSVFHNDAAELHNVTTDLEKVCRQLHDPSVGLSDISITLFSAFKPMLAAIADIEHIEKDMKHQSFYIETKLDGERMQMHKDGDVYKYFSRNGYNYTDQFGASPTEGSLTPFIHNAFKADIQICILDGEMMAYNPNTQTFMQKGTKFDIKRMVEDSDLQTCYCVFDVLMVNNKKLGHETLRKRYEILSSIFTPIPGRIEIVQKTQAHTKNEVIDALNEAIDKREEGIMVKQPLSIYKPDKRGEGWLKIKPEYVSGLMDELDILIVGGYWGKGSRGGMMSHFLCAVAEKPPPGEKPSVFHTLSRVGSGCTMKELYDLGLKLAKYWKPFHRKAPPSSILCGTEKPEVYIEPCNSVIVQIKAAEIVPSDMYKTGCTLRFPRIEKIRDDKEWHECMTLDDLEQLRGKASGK
Experiment: crystal structure; vapor diffusion, 100 mM MES (pH 5.6–5.7), 2.0 M (NH4)2SO4, 10 mM YCl3; native crystals and crystals soaked in 1 mM thiomersal
Details: both partners purified

binding result: binds
B1: Artemis peptide (residues 485–495) (peptide, UniProt Q96SD1 485-495, looked up)
peptide: DVPQWEVFFKR
notes: holds P487, W489, F492 and F493; also called Artemis fragment; source: synthetic peptide (PNAC facility, Department of Biochemistry, University of Cambridge)
